{"source": "the RNAGym collection of RNA variant scans (doi:10.1093/molbev/msab373)", "parents": {"B1": {"name": "Azoarcus group I ribozyme (parent)", "chain": "GUGCCUUGCGCCGGGAAACCACGCAAGGGAUGGUGUCAAAUUCGGCGAAACCUAAGCGCCCGCCCGGGCGUAUGGCAACGCCGAGCCAAGCUUCGGCGCCUGCGCCGAUGAAGGUGUAGAGACUAGACGGCACCCACCUAAGGCAAACGCUAUGGUGAAGGCAUAGUCCAGGGAGUGGCGAAAGUCACACAAACCGG"}}}
{"variants_of": "B1", "assay": "reverse-splicing fitness (ratio to wild type); higher = more active; in vitro selection; Mg2+ level not given", "outline": "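An in vitro group I ribozyme library with randomized positions was T7-transcribed and gel-purified. In triplicate, 10 pmol RNA in EPPS pH 7.5 was reacted with 50 pmoles of a 30-nt RNA substrate for 1 h at 37 °C across several added MgCl2 levels (1–48 mM), then stopped with EDTA. Products were reverse transcribed from a substrate-complementary primer, PCR-amplified and sequenced (HiSeq 4000). Fitness is a variant's read proportion after selection over that before, normalised to wild type.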"}
{"variant": "A111U A145C C150G C169G U176C", "reverse-splicing fitness": 0.00846}
{"variant": "A111U A145C C150G C169G U176G", "reverse-splicing fitness": 0.00549}
{"variant": "A111U A145C C150G C169G U176A", "reverse-splicing fitness": 0.00774}
{"variant": "A111U A120U A145G C169U U176A", "reverse-splicing fitness": 0.0114}
{"variant": "A111U A120U A145G C169U U176C", "reverse-splicing fitness": 0.0176}
{"variant": "A111U A120U A145G C169U U176G", "reverse-splicing fitness": 0.00258}
{"variant": "A111U A120U A145U C150A C169U U176C", "reverse-splicing fitness": 0.00324}
{"variant": "A111U A120U A145U C150A C169U U176A", "reverse-splicing fitness": 0.00294}
{"variant": "A111U A120U A145U C150A C169U U176G", "reverse-splicing fitness": 0.00245}
{"variant": "A111U A120U A145C C150G", "reverse-splicing fitness": 0.0741}
{"variant": "A111U A120U A145C C150U", "reverse-splicing fitness": 0.15}
{"variant": "A111U A120U A145C C150A", "reverse-splicing fitness": 0.0261}
{"variant": "A111U A120U A145U C150U C169G", "reverse-splicing fitness": 0.0304}
{"variant": "A111U A120U A145U C150U C169A", "reverse-splicing fitness": 0.00404}
{"variant": "A111U A120U A145U C150U C169U", "reverse-splicing fitness": 0.0433}
{"variant": "A111U A120U A145G C150U U176G", "reverse-splicing fitness": 0.0253}
{"variant": "A111U A120U A145G C150U U176A", "reverse-splicing fitness": 0.18}
{"variant": "A111U A120U A145G C150U U176C", "reverse-splicing fitness": 0.206}
{"variant": "A111U A120U A145U C150G C169U U176G", "reverse-splicing fitness": 0.00222}
{"variant": "A111U A120U A145U C150G C169U U176A", "reverse-splicing fitness": 0.00295}
{"variant": "A111U A120U A145U C150G C169U U176C", "reverse-splicing fitness": 0.0031}
{"variant": "A111U A120U A145C C150A C169A U176G", "reverse-splicing fitness": 0.00243}
{"variant": "A111U A120U A145C C150A C169A U176A", "reverse-splicing fitness": 0.00272}
{"variant": "A111U A120U A145C C150A C169A U176C", "reverse-splicing fitness": 0.00287}
{"variant": "A111U A120U A145C C150G C169A U176G", "reverse-splicing fitness": 0.00254}
{"variant": "A111U A120U A145C C150G C169A U176A", "reverse-splicing fitness": 0.00234}
{"variant": "A111U A120U A145C C150G C169A U176C", "reverse-splicing fitness": 0.00276}
{"variant": "A111U A120U U176A", "reverse-splicing fitness": 0.239}
{"variant": "A111U A120U U176G", "reverse-splicing fitness": 0.0683}
{"variant": "A111U A120U U176C", "reverse-splicing fitness": 0.296}
{"variant": "A111U A120U A145G C150A U176G", "reverse-splicing fitness": 0.00868}
{"variant": "A111U A120U A145G C150A U176A", "reverse-splicing fitness": 0.0364}
{"variant": "A111U A120U A145G C150A U176C", "reverse-splicing fitness": 0.0415}
{"variant": "A111U A120U A145C C150A C169G U176A", "reverse-splicing fitness": 0.00297}
{"variant": "A111U A120U A145C C150A C169G U176G", "reverse-splicing fitness": 0.00184}
{"variant": "A111U A120U A145C C150A C169G U176C", "reverse-splicing fitness": 0.00308}
{"variant": "A111U A120U A145U C169U U176G", "reverse-splicing fitness": 0.00258}
{"variant": "A111U A120U A145U C169U U176A", "reverse-splicing fitness": 0.0087}
{"variant": "A111U A120U A145U C169U U176C", "reverse-splicing fitness": 0.0174}
{"variant": "A111U A145C C150U U176A", "reverse-splicing fitness": 0.399}
{"variant": "A111U A145C C150U U176G", "reverse-splicing fitness": 0.189}
{"variant": "A111U A145C C150U U176C", "reverse-splicing fitness": 0.436}
{"variant": "A111U A120U A145U C150G U176C", "reverse-splicing fitness": 0.0208}
{"variant": "A111U A120U A145U C150G U176A", "reverse-splicing fitness": 0.0111}
{"variant": "A111U A120U A145U C150G U176G", "reverse-splicing fitness": 0.0043}
{"variant": "A111U A120U C150U C169A U176C", "reverse-splicing fitness": 0.00279}
{"variant": "A111U A120U C150U C169A U176G", "reverse-splicing fitness": 0.00214}
{"variant": "A111U A120U C150U C169A U176A", "reverse-splicing fitness": 0.00464}
{"variant": "A111U A120U A145G C150G C169U U176G", "reverse-splicing fitness": 0.00383}
{"variant": "A111U A120U A145G C150G C169U U176C", "reverse-splicing fitness": 0.00615}
{"variant": "A111U A120U A145G C150G C169U U176A", "reverse-splicing fitness": 0.00644}
{"variant": "A111U A145C C169A U176G", "reverse-splicing fitness": 0.00602}
{"variant": "A111U A145C C169A U176C", "reverse-splicing fitness": 0.00885}
{"variant": "A111U A145C C169A U176A", "reverse-splicing fitness": 0.0105}
{"variant": "A111U A120U C150U C169U U176C", "reverse-splicing fitness": 0.0116}
{"variant": "A111U A120U C150U C169U U176A", "reverse-splicing fitness": 0.0088}
{"variant": "A111U A120U C150U C169U U176G", "reverse-splicing fitness": 0.00287}
{"variant": "A111U A145C C150G C169G", "reverse-splicing fitness": 0.0108}
{"variant": "A111U A145C C150G C169A", "reverse-splicing fitness": 0.00988}
{"variant": "A111U A145C C150G C169U", "reverse-splicing fitness": 0.0175}
{"variant": "A111U A145C C150U C169A U176G", "reverse-splicing fitness": 0.00703}
{"variant": "A111U A145C C150U C169A U176A", "reverse-splicing fitness": 0.0117}
{"variant": "A111U A145C C150U C169A U176C", "reverse-splicing fitness": 0.00769}
{"variant": "A111U A120U C150G C169U U176C", "reverse-splicing fitness": 0.00454}
{"variant": "A111U A120U C150G C169U U176A", "reverse-splicing fitness": 0.00272}
{"variant": "A111U A120U C150G C169U U176G", "reverse-splicing fitness": 0.0029}
{"variant": "A111U A145C C150A C169A U176C", "reverse-splicing fitness": 0.00656}
{"variant": "A111U A145C C150A C169A U176G", "reverse-splicing fitness": 0.00617}
{"variant": "A111U A145C C150A C169A U176A", "reverse-splicing fitness": 0.0128}
{"variant": "A111U A120U A145G C150A C169U U176G", "reverse-splicing fitness": 0.00312}
{"variant": "A111U A120U A145G C150A C169U U176A", "reverse-splicing fitness": 0.00532}
{"variant": "A111U A120U A145G C150A C169U U176C", "reverse-splicing fitness": 0.00537}
{"variant": "A111U A120U A145G C150A C169A U176A", "reverse-splicing fitness": 0.0049}
{"variant": "A111U A120U A145G C150A C169A U176C", "reverse-splicing fitness": 0.0038}
{"variant": "A111U A120U A145G C150A C169A U176G", "reverse-splicing fitness": 0.00281}
{"variant": "A111U A145C C150U C169G U176A", "reverse-splicing fitness": 0.0212}
{"variant": "A111U A145C C150U C169G U176G", "reverse-splicing fitness": 0.00741}
{"variant": "A111U A145C C150U C169G U176C", "reverse-splicing fitness": 0.0135}
{"variant": "A111U A120U A145G C150G C169G U176A", "reverse-splicing fitness": 0.00683}
{"variant": "A111U A120U A145G C150G C169G U176C", "reverse-splicing fitness": 0.00495}
{"variant": "A111U A120U A145G C150G C169G U176G", "reverse-splicing fitness": 0.00343}
{"variant": "A111U A120U A145U C150U U176C", "reverse-splicing fitness": 0.174}
{"variant": "A111U A120U A145U C150U U176A", "reverse-splicing fitness": 0.16}
{"variant": "A111U A120U A145U C150U U176G", "reverse-splicing fitness": 0.0292}
